Reference: the DeepSol protein solubility set

Assay: soluble on expression in E. coli; label from the status in PepcDB or PDB records

Row | Sequence | soluble on expression in E. coli
1 | SLNEQELQDLQKMVGVAVNALGDIKAKDISVLETQDKTSLFARMIIASGDSTRQVKALANNVAVDLKEAGFEILSTEGDSGEWTLVDAGDLVVHVMLPAVRDFYDIDTLWGGEKPSFHAGMQKPWHAAD | soluble
2 | RNMDASPLAKRNSLQLFTDGQEKFQALFEDIRAAKETVHVEYYAFFNDTIGNQFLDVLIEKLHEGVEVYLIYDPWGSPGANKKFFARYVDAGGKVAPFITSRDMIRKTRLNYHLHRKIVVIDGKIGWTGGFNVGDQYLNVTEKFGYWRDTHIRLVGTAVFSLQEIFIMDWNASVKYPEERMTYHEKYFKLPEDHEVEHLSLQVVSDGPDSEEEILKSG | not soluble
3 | MGSDKIHHHHHHMSRITDYGFLFQTTFGTSKTNLVNNIQLSQMNSSSVQKQLKAAGIDTNSKKYKAALSEMMKNGNGAMFTNVQAIKNLMSQYDKNGDWIDPNTGLTGLAVTDENRNSYKHIISIPESSREEMFELAKKEFLNENGTLNGDTTKRESVYNNLYRKMDKDDRLSAGWTMEQYEHQYRQAFAEAAKAADPTWKAGKPIPAGALDGITRESVESGKKSVDIKI | not soluble
4 | MELKFVVPDMAETFGKLGYAGEGEILTEGYGRNTVVIGRSYHLYSSKQRADDIEVVVAAEAGEKDFDQDQPLKAVNPHLVAKGYAIENRGFTDYVLYVDDLVKA | not soluble
5 | MAHHHHHHMVFYSFVLVMKPRQRRFTSQALREIGVAVYSNGGLIRSITNEGIMRPYSRFRDADNTPLTYARYIILQLDMGEEEMGKVDKIIREHQDVLMALKLNNLERPVGIRSGNKELQAAYFPLDTFTRLEEEINWSPQTSADIYTQLEMNWKEFSRTRWSSFLRN | not soluble
6 | MTSIQQRDAQSVLAAIDNLLPEIRDRAQATEDLRRLPDETVKALDDVGFFTLLQPQQWGGLQCDPALFFEATRRLASVCGSTGWVSSIVGVHNWHLALFDQRAQEEVWGEDPSTRISSSYAPMGAGVVVDGGYLVNGSWNWSSGCDHASWTFVGGPVIKDGRPVDFGSFLIPRSEYEIKDVWYVVGLRGTGSNTLVVKDVFVPRHRFLSYKAMNDHTAGGLATNSAPVYKMPWGTMHPTTISAPIVGMAYGAYAAHVEHQGKRVRAAFAGEKAKDDPFAKVRIAEAASDIDAAWRQLIGNVSDEYALLAAGKEIPFELRARARRDQVRATGRSIASIDRLFEASGATALSNEAPIQRFWRDAHAGRVHAANDPERAYVIFGNHEFGLPPGDTMV | soluble
7 | MGSDKIHHHHHHMNLAAFEAFVKVMETGSISVAADQLFITQPAVTKRIHSLEEYFGVKLFESAGRGVQATHAAHSLLPKVKSWLNELRDIHHTLSHEQTQIQGRLKIGTSHHIGLHHLPAPLKHFVQQFPQVTLDVHFVDSEQAHEQVLAGDLELAFLTLPPSGDERLNYITIWNDPLVFVAAPFHPLAQKKNLTLQDLIEYPSLLPAAQTYTAQITLAEFEKQGLKPKITMSNNPLESIRMLVSIGLGWSVLPKTLLNQDMQQLDLNVEMNRQLGMVWHPARTQSRAMQELIKMMQE | not soluble
8 | VKKNGLGEIKSIYIDDNVSGSGFERRGIYELKRDVMEGKINLLVLKDLSRLGRNNAKTLLFLDFLEENGVRVVTFDGRYDSLKDNDIVGIETWFNERYILDISRKIRANLRFKIQKGEYIGHAPFGYEKSPYEKNRLIVNEEEAGIVRRIYSLYKEGYGYSYIAGILNSEGVKSPSNGRWNPTAIRRILLNRVYTGDTVQGVSEKISFKSKKTRRLPKERWVITENTHEPIVSKEEYEEIQRIRNNKNARPVPHKGIIHVFRGSIFCGGCGSVMFARKRHNRPMSYICSSYAKEGRTACTSHSIREKDLCEVVLDDVAKLLDDENMVNKILQKIDLAGAAEDYQTLREKLLKQMEAKQKQQEILYQDRLENKISESLFLRMNNRLENRISEIKREIAQLDLRKSEFVTSEEKIAKLKNYITNNGITNEIVKIVINRIIVFDKGDNYLEEKWNLNLSQKEKRYIELYGAVLIEYGF | soluble
9 | AIADKKAMWDRFYTENGSKGQFKNFEWFFGFPSVKDLVLPALQAMSCSHSGPLHILDMGCGTSALGPCIYSTSPCAVRVTCADISPVAVKLMEEHTKSTSTQPCNPSSALVFLELDCTQMTGHFKSRSLDLILDKGTTDALVRSKEGQVKAGQILRQSLQVLRPSGSFLQFSDEDPDARLIWLEREVQGAEVTADVGVQEIGELRGVSYFCYQISPRSRPHS | soluble
10 | MSERVKVAILGSGNIGTDLMYKLLKNPGHMELVAVVGIDPKSEGLARARALGLEASHEGIAYILERPEIKIVFDATSAKAHVRHAKLLREAGKIAIDLTPAARGPYVVPPVNLKEHLDKDNVNLITCGGQATIPLVYAVHRVAPVLYAEMVSTVASRSAGPGTRQNIDEFTFTTARGLEAIGGAKKGKAIIILNPAEPPILMTNTVRCIPEDEGFDREAVVASVRAMEREVQAYVPGYRLKADPVFERLPTPWGERTVVSMLLEVEGAGDYLPKYAGNLDIMTASARRVGEVFAQHLLGKPVEEVVA | soluble
11 | MINIHRFVQNRFLRTRHAHPFGIVLDIDGVLFRGRNMLPRVKEAFSLITDKKGNFVVPTVFLTNGTNSTEKNKAAQLSEQLGFRVPADNVLMSHSPLRMFTDLHDKQVLVVGQKNARAIAKGIIFFRVGFKKVTTIDHLVKWFPHLDCTDFSRKLVDPKETEAARKRFRPIEAIVMLGEPLKWETSLQLMLDCVLTYGKMDTMVFPLIAGGRRPDHIPIVACNVDLVWMADVASQLPRIGHGTFIHILDSLYEKLTGQHLQFRATLGKPTEVSYLHAAHRIQRQAKAMKLEDVKYVYVIGDNPMSDVLGARLFDRYLRHGGVGRFDHLDLEAFDVNDGEKPRVRTRNVVERCISILVETGVHQDHVHINGMVKPISALIDNLSKGEQLKLQLPDFVEYDLHAAIRTILRRECYR | not soluble
12 | MGSSHHHHHHSSGRENLYFQGHMLLHIPAIFTAEEVSRIRAALEQAEWADGKATAGYQSAKAKHNLQLPQDHPLAREIGEAMLQRLWNHPLFMSAALPLKVFPPLFNCYTGGGSFDFHIDNAVRDVHGGRERVRTDLSSTLFFSDPEDYDGGELVIQDTYGLQQVKLPAGDLVLYPGTSLHKVNPVTRGARYASFFWTQSLVREDSQRTLLFEMDQSIQRLTRDVPDHPSLIRLTGTYHNLLRRWSEL | soluble
13 | MPPLFHPHLVNGPFDDPGLYVDFLFERRAVLFDLGDTAPLPPRKVLRLSHIFVSHTHVDHFIGFDRVVRLCLGREKRLHLLGPPGFVDQVAARLAGYTWNLVETFPTDFTLAAAELHPDGSVHSAEFHCLAAFSRDNERRDRAAGGVLLDEEAFRVRSVFLDHGIPCLAFALEEKNHVHILKNRLREAGLPTGAWLAELKRAILGGRDDGEPFRAWWRDGGKECEAWFPLGELRERFTKTVAGQKIVYVTDAAPTPENRRLIVELAAGADYLFIEAPFLDEERERAGDRCHLTARIAGELGRDAGVARVVPFHFSPRYMGRESLLRDEVERAFRGLEHHHHHH | not soluble
14 | MSQLMQLKDVAESTRLGPLSGEVSAGEILHLVGPNGAGKSTLLARMAGLTSGEGSIRFGGAPLEAWATATLAQHRAYLAQQQNPPFAMPVWHYLTLHQPDKTRTGQLNEVADMLGLGDKLGRSVNQLSGGEWQRVRLAAVVLQIHPDANPVGQLLLLDEPMNSLDVAQQNALDRVLHHLCQAGIAIVMSSHDLNHTLRHAHKAWLLKRGKLIACGRREEVLTPSYLAQAYGLRFRRLDVEGHPMLISAT | not soluble
15 | MVLLDNADRVVLLTEKERPRGRKIDISLTFLLPHDNWFSVEDGVSDHYFSRRGFLRASLLGVLCLRGIGSALATEFLEESYPVGRLSLRNIHTGEHLSVTYRTPDGEVDLDALNSINWLLRCHFTNQHTEMDLAVIEYLNMVDKVLGGGREFRIISGYRSPEYNRILSEHNGAVAKQSLHMEGKAIDIAVPGVSLAVLRDLAAGFRCGGVGYYPHSGFVHLDSGRFRTW | not soluble
